Data published in article PMC4067574 (Protein expression and purification, 2010).
Values joined by “and” are separate entries in the source; they are usually repeats but may differ in a detail not shown here. Equal values may be shown once. Each block holds one binder with its values, some of them ahead of it.

Target: C3b (UniProt P01024 23-667; P01024 749-1663)
Assay: SPR

C3b, sequence (P01024 23-667, chain 1 of 2): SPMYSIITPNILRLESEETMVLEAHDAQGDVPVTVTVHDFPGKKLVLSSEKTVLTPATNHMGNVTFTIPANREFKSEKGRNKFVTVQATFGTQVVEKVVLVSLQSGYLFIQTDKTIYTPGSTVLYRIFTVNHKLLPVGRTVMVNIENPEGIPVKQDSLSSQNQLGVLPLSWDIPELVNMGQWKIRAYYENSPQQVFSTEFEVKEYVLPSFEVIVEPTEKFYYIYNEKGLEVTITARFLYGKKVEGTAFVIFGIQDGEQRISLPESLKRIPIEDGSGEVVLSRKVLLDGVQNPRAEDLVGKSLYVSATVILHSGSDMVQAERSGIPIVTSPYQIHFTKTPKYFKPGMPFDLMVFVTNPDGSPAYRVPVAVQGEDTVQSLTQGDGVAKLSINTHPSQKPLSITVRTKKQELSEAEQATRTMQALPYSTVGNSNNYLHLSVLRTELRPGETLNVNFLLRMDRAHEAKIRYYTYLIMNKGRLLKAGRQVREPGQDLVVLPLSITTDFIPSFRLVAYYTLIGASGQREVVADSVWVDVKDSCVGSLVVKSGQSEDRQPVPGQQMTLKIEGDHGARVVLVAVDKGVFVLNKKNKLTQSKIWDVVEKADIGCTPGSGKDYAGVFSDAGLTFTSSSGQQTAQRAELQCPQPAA
C3b, sequence (P01024 749-1663, chain 2 of 2): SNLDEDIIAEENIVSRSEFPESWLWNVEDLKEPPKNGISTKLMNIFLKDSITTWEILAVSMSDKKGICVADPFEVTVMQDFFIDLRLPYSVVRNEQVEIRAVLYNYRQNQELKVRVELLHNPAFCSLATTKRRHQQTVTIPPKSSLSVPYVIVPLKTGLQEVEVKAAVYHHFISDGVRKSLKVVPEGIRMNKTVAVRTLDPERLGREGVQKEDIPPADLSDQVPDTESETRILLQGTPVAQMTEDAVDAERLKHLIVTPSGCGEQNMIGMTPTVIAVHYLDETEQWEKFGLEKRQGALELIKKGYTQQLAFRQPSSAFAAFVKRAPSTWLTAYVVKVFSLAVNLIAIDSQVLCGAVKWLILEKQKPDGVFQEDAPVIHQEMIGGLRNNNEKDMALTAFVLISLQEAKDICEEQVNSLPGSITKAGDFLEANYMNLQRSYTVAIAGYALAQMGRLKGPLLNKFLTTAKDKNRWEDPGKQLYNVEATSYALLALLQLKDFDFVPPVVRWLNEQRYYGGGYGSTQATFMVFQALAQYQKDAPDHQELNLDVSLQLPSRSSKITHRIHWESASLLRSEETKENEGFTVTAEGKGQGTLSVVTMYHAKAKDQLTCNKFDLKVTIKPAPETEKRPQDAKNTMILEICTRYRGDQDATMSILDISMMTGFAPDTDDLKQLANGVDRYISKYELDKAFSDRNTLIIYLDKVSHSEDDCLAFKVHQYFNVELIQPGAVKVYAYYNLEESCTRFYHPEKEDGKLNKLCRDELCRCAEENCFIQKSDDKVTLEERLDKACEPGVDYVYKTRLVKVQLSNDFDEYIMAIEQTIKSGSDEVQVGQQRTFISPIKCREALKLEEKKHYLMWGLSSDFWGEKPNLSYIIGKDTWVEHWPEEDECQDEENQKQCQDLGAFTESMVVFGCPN

Kd: 1500 nM and 1400 nM
B1: recombinant human complement factor H, V62,Y402 variant (rFH), Endo Hf-deglycosylated (natural protein, UniProt P08603 19-1231, looked up)
chain: EDCNELPPRRNTEILTGSWSDQTYPEGTQAIYKCRPGYRSLGNVIMVCRKGEWVALNPLRKCQKRPCGHPGDTPFGTFTLTGGNVFEYGVKAVYTCNEGYQLLGEINYRECDTDGWTNDIPICEVVKCLPVTAPENGKIVSSAMEPDREYHFGQAVRFVCNSGYKIEGDEEMHCSDDGFWSKEKPKCVEISCKSPDVINGSPISQKIIYKENERFQYKCNMGYEYSERGDAVCTESGWRPLPSCEEKSCDNPYIPNGDYSPLRIKHRTGDEITYQCRNGFYPATRGNTAKCTSTGWIPAPRCTLKPCDYPDIKHGGLYHENMRRPYFPVAVGKYYSYYCDEHFETPSGSYWDHIHCTQDGWSPAVPCLRKCYFPYLENGYNQNYGRKFVQGKSIDVACHPGYALPKAQTTVTCMENGWSPTPRCIRVKTCSKSSIDIENGFISESQYTYALKEKAKYQCKLGYVTADGETSGSITCGKDGWSAQPTCIKSCDIPVFMNARTKNDFTWFKLNDTLDYECHDGYESNTGSTTGSIVCGYNGWSDLPICYERECELPKIDVHLVPDRKKDQYKVGEVLKFSCKPGFTIVGPNSVQCYHFGLSPDLPICKEQVQSCGPPPELLNGNVKEKTKEEYGHSEVVEYYCNPRFLMKGPNKIQCVDGEWTTLPVCIVEESTCGDIPELEHGWAQLSSPPYYYGDSVEFNCSESFTMIGHRSITCIHGVWTQLPQCVAIDKLKKCKSSNLIILEEHLKNKKEFDHNSNIRYRCRGKEGWIHTVCINGRWDPEVNCSMAQIQLCPPPPQIPNSHNMTTTLNYRDGEKVSVLCQENYLIQEGEEITCKDGRWQSIPLCVEKIPCSQPPQIEHGTINSSRSSQESYAHGTKLSYTCEGGFRISEENETTCYMGKWSSPPQCEGLPCKSPPEISHGVVAHMSDSYQYGEEVTYKCFEGFGIDGPAIAKCLGEKWSHPPSCIKTDCLSLPSFENAIPMGEKKDVYKAGEQVTYTCATYYKMDGASNVTCINSRWTGRPTCRDTSCVNPPTVQNAYIVSRQMSKYPSGERVRYQCRSPYEMFGDEEVMCLNGNWTEPPQCKDSTGKCGPPPPIDNGDITSFPLSVYAPASSVEYQCQNLYQLEGNKRITCRNGQWSEPPKCLHPCVISREIMENYNIALRWTAKQKLYSRTGESVEFVCKRGYRLSSRSHTLRTTCWDGKLEYPTCAKR
modifications: eight residual N-acetylglucosamine moieties after endoglycosidase H (Endo Hf) digestion of the N-linked glycans

Kd: 2900 nM
B2: plasma-purified human complement factor H (reference FH) (natural protein, UniProt P08603 19-1231, looked up)
chain: B1 chain
modifications: eight N-glycans (native protein)
